Measured values reported in patent publication US20110053865A1 (Ablynx, published 2011).
Like-named read-outs stand apart in the source and are kept apart here. Blank lines part the entries; values can stand above or below the binder they belong to.

Legend:
[1] = target: T1, recombinant human IL-23 (p19/p40) (human, UniProt Q9NPF7 20-189; P29460 23-328); assay: SPR Biacore, hIL-23 on chip
T1 construct: Bought heterodimer (R&D Systems or eBioscience); biotinylated in the alpha-screens; also called hIL-23
T1 sequence (looked up) 1: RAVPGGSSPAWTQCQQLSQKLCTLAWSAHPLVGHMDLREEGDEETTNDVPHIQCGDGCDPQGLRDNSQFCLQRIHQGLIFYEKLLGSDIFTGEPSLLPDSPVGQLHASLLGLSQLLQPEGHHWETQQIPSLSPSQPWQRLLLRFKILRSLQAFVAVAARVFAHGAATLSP
T1 sequence (looked up) 2: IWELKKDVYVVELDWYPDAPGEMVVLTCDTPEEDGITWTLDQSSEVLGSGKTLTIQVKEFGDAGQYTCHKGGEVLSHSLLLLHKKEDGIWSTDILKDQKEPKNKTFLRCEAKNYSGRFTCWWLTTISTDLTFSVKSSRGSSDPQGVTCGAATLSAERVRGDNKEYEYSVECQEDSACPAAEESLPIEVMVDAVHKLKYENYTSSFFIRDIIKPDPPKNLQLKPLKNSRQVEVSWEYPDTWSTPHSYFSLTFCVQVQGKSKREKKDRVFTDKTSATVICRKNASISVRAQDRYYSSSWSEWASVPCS
Experimental: Nanobody binding was assessed at one concentration (100 nM). Each Nanobody was injected for 4 minutes at a flow rate of 45 μl/min to allow binding to chip-bound antigen. Next, binding buffer without Nanobody was sent over the chip at the same flow rate to allow spontaneous dissociation of bound Nanobody.

[2] = target: T1, recombinant human IL-23 (p19/p40); assay: alpha-screen, hIL-23/IL-23R-Fc
Experimental: (§1) Human IL-23R-Fc chimera and hIL12Rbeta1-Fc chimera (R&D Systems, Minneapolis, Minn., US) were coupled to acceptor beads according to manufacturer instructions (Perkin Elmer, Waltham, Mass., US).
(§2) To this mixture, the IL-23R acceptor beads and the streptavidin donor beads were added and further incubated for 1 hour at RT.

cynomolgus IL-23 [3] = target: cynomolgus IL-23 (cynomolgus); assay: cell-based or functional assay
[4] = target: T1, recombinant human IL-23 (p19/p40); assay: cell-based or functional assay
cynomolgus IL-23 [5] = target: T2, cynomolgus IL-23 (cynomolgus); assay: alpha-screen, cyno IL-23/IL-23R-Fc
T2 construct: also called cyno IL-23; cIL-23
Experimental: as §1, §2

cynomolgus IL-23 [6] = target: T2, cynomolgus IL-23; assay: SPR Biacore, cyno IL-23 on chip
[7] = target: T1, recombinant human IL-23 (p19/p40); assay: inhibition ELISA, hIL-23/hIL-23R-Fc
Experimental: (§3) Visualisation was performed with enhanced soluble 3,3′,5,5′-tetramethylbenzidine (esTMB) colouring reagent, after which the coloring reaction was stopped with 1N HCl. The absorbance was measured at 450 nm.

[8] = target: T1, recombinant human IL-23 (p19/p40); assay: cell-based or functional assay; remark: listed apart in the source
[9] = target: T1, recombinant human IL-23 (p19/p40); assay: inhibition ELISA, hIL-23/hIL-23R-Fc; remark: listed apart in the source
Experimental: as §3

cynomolgus IL-23 [10] = target: T2, cynomolgus IL-23; assay: cell-based or functional assay; remark: listed apart in the source
[11] = target: T1, recombinant human IL-23 (p19/p40); assay: cell-based or functional assay; remark: listed apart in the source
[12] = target: T1, recombinant human IL-23 (p19/p40); assay: 'potency assay', not specified (probably the inhibition ELISA of Example 34)
[13] = target: T1, recombinant human IL-23 (p19/p40); assay: SPR Biacore, hIL-23 on chip, several concentrations
[14] = target: T1, recombinant human IL-23 (p19/p40); assay: cell-based or functional assay; remark: listed apart in the source
cynomolgus IL-23 [15] = target: T2, cynomolgus IL-23; assay: cell-based or functional assay; remark: listed apart in the source
[16] = target: T1, recombinant human IL-23 (p19/p40); assay: cell-based or functional assay; remark: listed apart in the source
[17] = target: T1, recombinant human IL-23 (p19/p40); assay: comp alpha-screen hIL-23

B1: P23IL36A4 (VHH)
VHH: EVQLVESGGGLVQAGGSLRLSCVASERTFSSSAMGWFRQAPGKEREFVAAIGWSGGGFIHYGDSVKGRFTISADNGKNTVYLQMNSLKPEDTAVYYCAADSRLRGIALLKGSYDYRGQGTQVTVSS
notes: p19+ Nanobody; c-myc, His6-tagged; also called P23IL 36A4 (=36G2); 36G2
koff [1]: 0.0009 s⁻¹ | IC50 [2]: 1 nM | IC50, mouse splenocyte assay (mIL-22) (cynomolgus IL-23 [3]): 11 nM | IC50, mouse splenocyte assay (mIL-22) [4]: 3.12 nM | IC50 (cynomolgus IL-23 [5]): 0.47 nM | koff (cynomolgus IL-23 [6]): 0.0012 s⁻¹

B2: 23IL0038 (PEG40 form not stated) (bispecific antibody)
chain: EVQLVESGGGLVQAGGSLRLSCAASGRIFSLPASGNIFNLLTIAWHRQAPGMQRELVATINSGSRTNYADSVKGRFTISRDNAQKTVYLQMNNLKPEDTAVYYCQTSGSGSPNFWGQGTQVTVSSGGGGSGGGGSGGGGSGGGGSGGGGSGGGGSGGGGSEVQLVESGGGLVQPGGSLRLSCIASGLPFSTKSMGWFRQAPGKEREFVARISPGGTSRYYGDFVKGRFAISRDNAKNTTWLQMNSLKAEDTAVYYCASGERSTYIGSNYYRTNEYDYWGTGTQVTVSSGGGC
modifications: PEG40 on the C-terminal Cys of GGGC; branched or linear not stated for this assay
notes: also called P23IL0038; 119A3-81G2-PEG40
IC50 [7]: 0.032 nM

B5: P23IL37D5 (VHH)
VHH: EVQLVESGGGLVQPGGSLRLSCAASGFTLDYLAIGWFRQAPGKEREGVSCVSSSGQYTYYADSVKGRFTISRDNAESTVYLQMNSLKPEDTAVYYCATDPECYRVRGYYNGEYDYWGQGTQVTVSS
notes: p19+ Nanobody; c-myc, His6-tagged; also called PIL2337D5
IC50 [12]: 0.0384 nM | koff [1]: 0.00019 s⁻¹ | IC50 [2]: 0.11 nM | IC50, mouse splenocyte assay (mIL-22) (cynomolgus IL-23 [3]): 0.288 nM | IC50, mouse splenocyte assay (mIL-22) [4]: 0.017 nM | Kd [13]: 0.57 nM | koff [13]: 0.00018 s⁻¹ | IC50 (cynomolgus IL-23 [5]): 0.32 nM | koff (cynomolgus IL-23 [6]): 0.00051 s⁻¹ | IC50, BAF3 proliferation assay, 76 pM hIL-23 [14]: 13 pM | IC50, splenocyte assay, 3.8 pM cIL-23 (cynomolgus IL-23 [15]): 212 pM | IC50, splenocyte assay, 19 pM hIL-23 [16]: 24 pM | IC50 [17]: 0.176 nM

The remaining lines, values ahead:

IC50, BA/F3 proliferation assay, 76 pM hIL-23 [8]: 125 pM | IC50 [9]: 0.038 nM | IC50, splenocyte assay, 3.8 pM cIL-23 (cynomolgus IL-23 [10]): 6.7 pM | IC50, splenocyte assay, 19 pM hIL-23 [11]: 4.6 pM
B3: P23IL119A3V16-35GS-81G2V11-HSA (bispecific antibody)
chain: EVQLLESGGGLVQPGGSLRLSCAASGRIFSLPASGNIFNLLTIAWYRQAPGKGRELVATINSGSRTYYADSVKGRFTISRDNSKKTLYLQMNSLRPEDTAVYYCQTSGSGSPNFWGQGTLVTVSSGGGGSGGGGSGGGGSGGGGSGGGGSGGGGSGGGGSEVQLLESGGGLVQPGGSLRLSCAASGLPFSTKSMGWFRQAPGKGREFVSRISPGGTSRYYGDFVKGRFTISRDNSKNTLYLQMNSLRAEDTAVYYCASGERSTYIGSNYYRTNEYDYWGQGTLVTVSS
notes: also called P23IL0065; 23IL0065; not shown: full length human serum albumin fused directly to the C-terminus

IC50, BA/F3 proliferation assay, 76 pM hIL-23 [8]: 71 pM | IC50 [9]: 0.025 nM | IC50, splenocyte assay, 3.8 pM cIL-23 (cynomolgus IL-23 [10]): 13.1 pM | IC50, splenocyte assay, 19 pM hIL-23 [11]: 2.7 pM
B4: P23IL119A3V16-35GS-81G2V11-GGGC-PEG40 linear (bispecific antibody)
chain: EVQLLESGGGLVQPGGSLRLSCAASGRIFSLPASGNIFNLLTIAWYRQAPGKGRELVATINSGSRTYYADSVKGRFTISRDNSKKTLYLQMNSLRPEDTAVYYCQTSGSGSPNFWGQGTLVTVSSGGGGSGGGGSGGGGSGGGGSGGGGSGGGGSGGGGSEVQLLESGGGLVQPGGSLRLSCAASGLPFSTKSMGWFRQAPGKGREFVSRISPGGTSRYYGDFVKGRFTISRDNSKNTLYLQMNSLRAEDTAVYYCASGERSTYIGSNYYRTNEYDYWGQGTLVTVSSGGGC
modifications: linear mPEG40 (maleimide) on the C-terminal Cys of GGGC
notes: also called P23IL0063; 23IL0063
